Measured values reported in PMC9953004, “Scandium-44 Radiolabeled Peptide and Peptidomimetic Conjugates Targeting Neuropilin-1 Co-Receptor as Potential Tools for Cancer Diagnosis and Anti-Angiogenic Therapy” (Biomedicines, 2023).
pIC50: −log10 of the molar value.

Target: Recombinant human NRP-1 (neuropilin-1 co-receptor) (human) (UniProt O14786)
Test: ELISA; competitive; recombinant human NRP-1 coated on a 96-well plate (200 ng/well, overnight, 4 °C), blocked with 0.5% BSA in PBS; 50 µL compound in PBS (100, 50, 25, 12.5, 6.75 µM) plus 50 µL (400 ng/mL) human (bt)-VEGF-A165 in PBS with 4 µg/mL heparin; 2 h at room temperature; streptavidin-HRP, chemiluminescence; IC50 by nonlinear regression, mean ± SD of three experiments

Recombinant human NRP-1 (neuropilin-1 co-receptor) (human), sequence (O14786 22-856): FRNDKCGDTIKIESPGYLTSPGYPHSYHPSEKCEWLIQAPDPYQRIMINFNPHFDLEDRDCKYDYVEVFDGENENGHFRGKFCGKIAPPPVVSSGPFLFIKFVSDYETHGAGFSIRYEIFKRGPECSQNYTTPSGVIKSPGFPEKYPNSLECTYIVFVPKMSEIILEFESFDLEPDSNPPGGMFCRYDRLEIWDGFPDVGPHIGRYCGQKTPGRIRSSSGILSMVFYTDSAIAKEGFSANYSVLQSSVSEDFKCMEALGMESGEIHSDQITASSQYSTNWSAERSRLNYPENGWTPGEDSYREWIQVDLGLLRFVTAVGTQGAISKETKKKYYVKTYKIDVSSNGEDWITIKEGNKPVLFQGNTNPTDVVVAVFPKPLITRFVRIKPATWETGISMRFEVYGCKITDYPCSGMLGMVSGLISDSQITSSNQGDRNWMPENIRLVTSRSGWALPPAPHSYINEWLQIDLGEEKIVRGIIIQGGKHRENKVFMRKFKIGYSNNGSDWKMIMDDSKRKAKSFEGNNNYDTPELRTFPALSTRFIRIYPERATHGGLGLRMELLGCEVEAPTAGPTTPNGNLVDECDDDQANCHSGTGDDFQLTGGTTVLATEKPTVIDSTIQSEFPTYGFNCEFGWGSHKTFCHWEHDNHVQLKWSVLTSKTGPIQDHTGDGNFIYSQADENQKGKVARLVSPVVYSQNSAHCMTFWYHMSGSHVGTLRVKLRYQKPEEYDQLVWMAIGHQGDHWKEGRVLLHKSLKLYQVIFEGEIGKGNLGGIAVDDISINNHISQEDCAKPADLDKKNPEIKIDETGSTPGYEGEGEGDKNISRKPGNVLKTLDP

| pIC50 | Substance |
| --- | --- |
| < 4.00 | ^DR7A-^DLys(DOTA-Ga) (peptide) |
| < 4.00 | ^DR7A-^DLys(DOTA-Sc) (peptide) |
